{"source": "paper PMC7806871", "about": "(Cell Death Discovery, 2021)", "binders": {"B1": {"name": "Immunity factor for TNT (IFT), recombinant IFT-His6x (natural protein)", "chain": "TIGVDLSTDLQDWIRLSGMNMIQGSETNDGRTILWNKGGEVRYFIDRLAGWYVITSSDRMSREGYEFAAASMSVIEKYLYGYFGGSVRSERELPAIRAPFQPEELMPEYSIGTMTFAGRQRDTLIDSSGTVVAITAADRLVELSHYLDVSVNVIKDSFLDSEGKPLFTLWKDYKG", "notes": "not shown: His6, C-terminal, kept"}}, "target": "T1, Tuberculosis necrotizing toxin (TNT), C-terminal domain of CpnT, recombinant TNT-His6x (M. tuberculosis, UniProt O05442 648-846)", "T1 construct": "not shown: His6, C-terminal, kept", "T1 sequence": "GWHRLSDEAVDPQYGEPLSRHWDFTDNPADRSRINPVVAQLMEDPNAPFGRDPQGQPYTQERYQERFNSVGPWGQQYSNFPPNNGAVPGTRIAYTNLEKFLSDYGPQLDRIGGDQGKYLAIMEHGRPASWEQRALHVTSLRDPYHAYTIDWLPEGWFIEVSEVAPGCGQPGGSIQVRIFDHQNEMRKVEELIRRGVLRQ", "assay": "ELISA", "details": "both partners purified", "data": [{"binder": "B1", "values": [{"measurement": "binding result", "value": "binds"}]}]}
